Source: patent US20210388087A1 (Chugai, published 2021)
Residue numbers refer to the chain shown, from its start. In names and notes the source's numbering stands. One block for each binder: values may come before it.

Molecular target: T1, Human CD3eg linker (human)
T1 construct: Single chain: epsilon and gamma subunits of human CD3 joined by a 29-mer linker, Flag-tag at the C-terminus; also called recombinant human CD3
T1 chain: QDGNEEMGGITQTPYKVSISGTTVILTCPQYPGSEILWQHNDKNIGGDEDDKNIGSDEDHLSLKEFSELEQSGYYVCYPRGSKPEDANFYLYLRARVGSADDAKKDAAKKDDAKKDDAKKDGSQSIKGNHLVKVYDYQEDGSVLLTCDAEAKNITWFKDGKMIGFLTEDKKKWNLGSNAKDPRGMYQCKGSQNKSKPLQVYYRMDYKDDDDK
Test: Biacore SPR, vs template H183/L072

B1: H183/L072 VH G52cA (antibody, name in Kabat numbering, V domains shown)
VH: QVQLVESGGGLVQPGRSLRLSCAASGFTFSNAWMHWVRQAPGKGLEWVAQIKDKANAYAAYYAPSVKGRFTISRDDSKNSIYLQMNSLKTEDTAVYYCHYVHYASASTVLPAFGVDAWGQGTTVTVSS
VL: DIVMTQSPLSLPVTPGEPASISCQASQELVHMNRNTYLHWYQQKPGQAPRLLIYKVSNRFPGVPDRFSGSGSGTDFTLKISRVEAEDVGVYYCAQGTSVPFTFGQGTKLEIK
fold change of affinity: 1.6 fold

B2: H183/L072 VH G52cY (antibody, name in Kabat numbering, V domains shown)
VH: B1 VH with A55Y
VL: B1 VL
fold change of affinity: 1.5 fold

B3: H183/L072 VH G52cQ (antibody, name in Kabat numbering, V domains shown)
VH: B1 VH with A55Q
VL: B1 VL
fold change of affinity: 1.9 fold

B4: H183/L072 VH G52cN (antibody, name in Kabat numbering, V domains shown)
VH: B1 VH with A55N
VL: B1 VL
fold change of affinity: 1.2 fold

B10: H183/L072 VH G52cE (antibody, name in Kabat numbering, V domains shown)
VH: B1 VH with A55E
VL: B1 VL
fold change of affinity: 1.2 fold

B11: H183/L072 VH G52cM (antibody, name in Kabat numbering, V domains shown)
VH: B1 VH with A55M
VL: B1 VL
fold change of affinity: 1.4 fold

B12: H183/L072 VH G52cK (antibody, name in Kabat numbering, V domains shown)
VH: B1 VH with A55K
VL: B1 VL
fold change of affinity: 1.6 fold

B13: H183/L072 VH G52cI (antibody, name in Kabat numbering, V domains shown)
VH: B1 VH with A55I
VL: B1 VL
fold change of affinity: 1.1 fold

B20: H183/L072 VH G52cF (antibody, name in Kabat numbering, V domains shown)
VH: B1 VH with A55F
VL: B1 VL
fold change of affinity: 2 fold

B21: H183/L072 VH G52cS (antibody, name in Kabat numbering, V domains shown)
VH: B1 VH with A55S
VL: B1 VL
fold change of affinity: 1 fold

B25: H183/L072 VH G52cL (antibody, name in Kabat numbering, V domains shown)
VH: B1 VH with A55L
VL: B1 VL
fold change of affinity: 1.5 fold

B26: H183/L072 VH G52cT (antibody, name in Kabat numbering, V domains shown)
VH: B1 VH with A55T
VL: B1 VL
fold change of affinity: 0.9 fold

B27: H183/L072 VH G52cR (antibody, name in Kabat numbering, V domains shown)
VH: B1 VH with A55R
VL: B1 VL
fold change of affinity: 1.4 fold

B29: H183/L072 VH G52cH (antibody, name in Kabat numbering, V domains shown)
VH: B1 VH with A55H
VL: B1 VL
fold change of affinity: 1.7 fold

B30: H183/L072 VH G65A (antibody, name in Kabat numbering, V domains shown)
VH: B1 VH with A55G, G68A
VL: B1 VL
fold change of affinity: 1.1 fold

B33: H183/L072 VH G65L (antibody, name in Kabat numbering, V domains shown)
VH: B1 VH with A55G, G68L
VL: B1 VL
fold change of affinity: 0.9 fold

B34: H183/L072 VH G52cP (antibody, name in Kabat numbering, V domains shown)
VH: B1 VH with A55P
VL: B1 VL
fold change of affinity: 1.3 fold

B35: H183/L072 VH G65I (antibody, name in Kabat numbering, V domains shown)
VH: B1 VH with A55G, G68I
VL: B1 VL
fold change of affinity: 1 fold

B36: H183/L072 VH G52cD (antibody, name in Kabat numbering, V domains shown)
VH: B1 VH with A55D
VL: B1 VL
fold change of affinity: 1.1 fold

B42: H183/L072 VH G52cW (antibody, name in Kabat numbering, V domains shown)
VH: B1 VH with A55W
VL: B1 VL
fold change of affinity: 1.5 fold

B44: H183/L072 VH G52cV (antibody, name in Kabat numbering, V domains shown)
VH: B1 VH with A55V
VL: B1 VL
fold change of affinity: 1.5 fold

Other lines, results leading:

fold change of affinity: 0 fold
B5: H183/L072 VH H35N (antibody, name in Kabat numbering, V domains shown)
VH: B1 VH with H35N, A55G
VL: B1 VL

fold change of affinity: 0.9 fold
B6: H183/L072 VH G65P (antibody, name in Kabat numbering, V domains shown)
VH: B1 VH with A55G, G68P
VL: B1 VL

fold change of affinity: 0 fold
B7: H183/L072 VH H35R (antibody, name in Kabat numbering, V domains shown)
VH: B1 VH with H35R, A55G
VL: B1 VL

fold change of affinity: 0.6 fold
B8: H183/L072 VH G100hP (antibody, name in Kabat numbering, V domains shown)
VH: B1 VH with A55G, G114P
VL: B1 VL

fold change of affinity: 0 fold
B9: H183/L072 VH H35W (antibody, name in Kabat numbering, V domains shown)
VH: B1 VH with H35W, A55G
VL: B1 VL

fold change of affinity: 0 fold
B14: H183/L072 VH H35M (antibody, name in Kabat numbering, V domains shown)
VH: B1 VH with H35M, A55G
VL: B1 VL

fold change of affinity: 0 fold
B15: H183/L072 VH H35G (antibody, name in Kabat numbering, V domains shown)
VH: B1 VH with H35G, A55G
VL: B1 VL

fold change of affinity: 0.8 fold
B16: H183/L072 VH G100hL (antibody, name in Kabat numbering, V domains shown)
VH: B1 VH with A55G, G114L
VL: B1 VL

fold change of affinity: 0 fold
B17: H183/L072 VH H35V (antibody, name in Kabat numbering, V domains shown)
VH: B1 VH with H35V, A55G
VL: B1 VL

fold change of affinity: 4.2 fold
B18: H183/L072 VH G100hM (antibody, name in Kabat numbering, V domains shown)
VH: B1 VH with A55G, G114M
VL: B1 VL

fold change of affinity: 4.8 fold
B19: H183/L072 VH G100hA (antibody, name in Kabat numbering, V domains shown)
VH: B1 VH with A55G, G114A
VL: B1 VL

fold change of affinity: 0 fold
B22: H183/L072 VH H35A (antibody, name in Kabat numbering, V domains shown)
VH: B1 VH with H35A, A55G
VL: B1 VL

fold change of affinity: 0 fold
B23: H183/L072 VH H35K (antibody, name in Kabat numbering, V domains shown)
VH: B1 VH with H35K, A55G
VL: B1 VL

fold change of affinity: 0 fold
B24: H183/L072 VH H35F (antibody, name in Kabat numbering, V domains shown)
VH: B1 VH with H35F, A55G
VL: B1 VL

fold change of affinity: 2.6 fold
B28: H183/L072 VH G100hI (antibody, name in Kabat numbering, V domains shown)
VH: B1 VH with A55G, G114I
VL: B1 VL

fold change of affinity: 0 fold
B31: H183/L072 VH H35E (antibody, name in Kabat numbering, V domains shown)
VH: B1 VH with H35E, A55G
VL: B1 VL

fold change of affinity: 0 fold
B32: H183/L072 VH H35L (antibody, name in Kabat numbering, V domains shown)
VH: B1 VH with H35L, A55G
VL: B1 VL

fold change of affinity: 0 fold
B37: H183/L072 VH H35I (antibody, name in Kabat numbering, V domains shown)
VH: B1 VH with H35I, A55G
VL: B1 VL

fold change of affinity: 0 fold
B38: H183/L072 VH H35Q (antibody, name in Kabat numbering, V domains shown)
VH: B1 VH with H35Q, A55G
VL: B1 VL

fold change of affinity: 0.5 fold
B39: H183/L072 VH H35S (antibody, name in Kabat numbering, V domains shown)
VH: B1 VH with H35S, A55G
VL: B1 VL

fold change of affinity: 0 fold
B40: H183/L072 VH H35P (antibody, name in Kabat numbering, V domains shown)
VH: B1 VH with H35P, A55G
VL: B1 VL

fold change of affinity: 0 fold
B41: H183/L072 VH H35T (antibody, name in Kabat numbering, V domains shown)
VH: B1 VH with H35T, A55G
VL: B1 VL

fold change of affinity: 0.9 fold
B43: H183/L072 VH G65M (antibody, name in Kabat numbering, V domains shown)
VH: B1 VH with A55G, G68M
VL: B1 VL

fold change of affinity: 0 fold
B45: H183/L072 VH H35D (antibody, name in Kabat numbering, V domains shown)
VH: B1 VH with H35D, A55G
VL: B1 VL
